US20150246949A1, “Desmoglein 2 (DSG2) Binding Proteins and Uses Therefor” (UNIVERSITY OF WASHINGTON THROUGH ITS CENTER FOR …, priority 2012, published 2015)
Numbering of substitutions follows the chain as printed. Names and notes keep the numbering of the source. “Also recorded” adds a separate entry of the source.

B1: D261N (protein)
chain: MKVSALKEKVSALKEKVSALKEKVSALKEKVSALKEGSGGGSGGGSGGGSNSIALKNNTLWTGPKPEANCIIEYGKQNPDSKLTLILVKNGGIVNGYVTLMGASDYVNTLFKNKNVSINVELYFDATGHILPDSSSLKTDLELKYKQTADFSARGFMPSTTAYPFVLPNAGTHNENYIFGQCYYKASNGALFPLEVTVMLNKRLPDSRTSYVMTFLWSLNAGLAPETTQATLITSPFTFSYIREDD
B2: JO-4 (protein)
chain: B1 chain with Y177F, N188D
B3: JO-1: recombinant protein with the Ad3 fiber knob and a domain for self-dimerization of trimeric knobs (SEQ ID NO:27) (protein)
chain: B1 chain with N188D

Legend:
[1] = tested on: polarized colon cancer T84 cells; assay: Transepithelial electrical resistance (TEER) permeability assay; assay type: cell-based; conditions: for Effect on TEER: 5 μg dimeric Ad3 fiber knob added 1 hour to apical chamber
Method: FIG. 5. Correlation of reduced DSG2 binding with the ability to open epithelial junctions. A) Transepithelial electrical resistance (TEER) measured on polarized colon cancer T84 cells. Cells were cultured in transwell chambers until the TEER was constant, i.e. tight junctions had formed. A total of 5 μg of dimeric Ad3 fiber knobs in PBS was then added for 1 hour to the apical chamber. TEER was measured at the indicated time points. N=6. For time points 1.5 and 4 hours the difference between JO-1 vs D261N and N186D was significant (p<0.01). The arrows indicate the addition and removal of Ad3 fiber knobs. B) Enhancement of irinotecan therapy. A total of 4×10^6 A549 cells were injected subcutaneously into CB17-SCID/beige mice. Once the tumor reached a volume of ˜100 mm^3 (day 15 after implantation), the mice were injected intravenously with 2 mg/kg JO-1, E299V, N186D, or PBS, followed by an intravenous injection of irinotecan (37.5 mg/kg) one hour later. The treatment was repeated on day 25. N=5. […] The difference between “irinotecan” vs “JO-1+irinotecan” was significant (p<0.01) from day 20 on.
FIG. 9. Analysis of dimeric Ad3 fiber knob mutants with increased affinity to DSG2. A) Competition of Ad3-GFP virus infection on HeLa cells with dimeric affinity-enhanced mutant Y250F and JO-1 (dimeric wt Ad3 fiber knob). The experimental setting is as described for FIG. 3C. left panel: percentage of GFP positive cells. Right panel: mean fluorescence intensity. N=3. The standard deviation was less than 10%. B) Competition of Ad3-GFP virus infection on HeLa cells by Ad3 knob mutants with enhanced DSG2 binding but without dimerization domain. 1.5×10^5 HeLa cells were seeded into 24 well plates. Cells were incubated with the Ad3 knob mutants at the increasing concentrations for one hour at room temperature. 100 pfu/cell of Ad3GFP virus were then added and GFP expression was analyzed 18 hours later. C) TEER on colon cancer T84 cells. The experimental setting was the same as for FIG. 5A. The TEER at 4 hours is shown. N=3.
A total of 5×10^5 T84 cells were seeded in 12 mm transwell inserts (PET membrane, with 0.4 μm pore size (Corning, N.Y.) and cultured for >14 days until transepithelial electrical resistance (TEER) was stable. Culture medium was changed every 2-3 days. The cells were exposed to DSG2 ligands (20 μg/ml) in adhesion medium (DMEM, 1% FBS, 2 mM MgCl2, 20 mM HEPES) for 15 min at room temperature and TEER was measured and calculated as described elsewhere (39).

[2] = Serum clearance of JO-1 and JO-4 by ELISA; assay type: in vivo, hDSG2 transgenic mice; conditions: 2 mg/kg i.v.; for Decline of serum concentration within an hour after injection: TC1-hDSG2 tumors ~600 mm^3, N=3; for Serum concentration plateau: after one hour post-injection
Method: FIG. 11. Pharmacokinetics, toxicity, and immunogenicity of JO-4. A) Serum clearance of JO-1 and JO-4. hDSG2 transgenic mice with subcutaneous TC1-hDSG2 tumors (˜600 mm^3) were intravenously injected with JO-1 or JO-4 (2 mg/kg) and serum samples were analyzed for by ELISA. N=3. Note that the y-axis has a log scale. B) Lymphocyte and platelet counts in hDSG2/TC1-hDSG2 transgenic mice after JO-1 or JO-4 injection. N=3. C) Therapy studies in immunocompetent hDSG2 transgenic mice with TC1-hDSG2 tumors. When tumors reached a volume of ˜80 mm^3, JO-1 or JO-4 (2 mg/kg) or PBS was injected intravenously followed one hour later by PLD/Doxil (i.v. 1.5 mg/kg). Treatment was repeated as indicated by arrows. Tumors were then allowed to re-grow for about two weeks. From day 15 on serum anti-JO-1/J)-4 antibodies were detectable by ELISA. Two more treatment cycles were performed at day 28 and day 35. […] The difference between JO-1/PLD vs JO-4/PLD is significant from day 31 on. N=10.
Two of the affinity enhanced version of JO-1, Y293D and V250F were analyzed in in vivo assay. We called these mutants JO-2 and JO-4, respectively. The first study was performed in a xenograft model derived from A549 cells similar to the study described for FIG. 5B. […] Additional studies were performed in xenograft tumors derived from ovc316 cells (30, 32). Ovc316 cells are Her2/neu positive epithelial tumor cells derived from an ovarian cancer biopsy. These cells can undergo EMT and the reverse process, mesenchymal-to-epithelial-transition (MET), under specific conditions in vitro and in vivo. A subfraction of ovc316 cells that is positive for Nanog, CD133, and E-cadherin is enriched for cancer stem cells, i.e. self-renewing cells with pluripotent potential and tumor forming ability (30). Ovc316 cells therefore closely model the heterogeneity and plasticity seen in tumors in situ. […] Finally, we tested JO-4 in a model for triple-negative breast cancer (TNBC). TNBC is characterized by a lack or minimal expression of estrogen receptor (ER), progesterone receptor (PR) and the absence of Her2/neu overexpression. TNBC accounts for 15% of all breast cancers. Overall survival is poor compared with that in patients who have other phenotypes. A characteristic feature of TNBC is high levels of DSG2 and epithelial junctions. Promising clinical results in the treatment of TNBS have been achieved with nanoparticle, albumin-conjugated paclitaxel (nab-paclitaxel/Abraxane™) alone or in combination with the EGFR-targeting mAb cetuximab/Erbitux™ (38). […] Because of its therapeutic relevance, we further studied JO-4 in an adequate mouse tumor model. […] These mice were subcutaneously implanted with syngeneic TC1-hDSG tumors. […] We also analyzed hematological parameters after i.v. JO-1 and JO-4 injection.

Molecule | Effect on TEER [1] | Decline of serum concentration within an hour after injection [2] | Serum concentration plateau [2] | TEER compared to JO-1 ([1]; dimeric affinity-enhanced mutants, TEER at 4 hours, N=3)
B1 | no effect on the TEER | – | – | –
B2 | – | declined more than one order of magnitude; also recorded: significantly greater | ~100 ng/mL | significantly higher
B3 | rapid decrease in the TEER | declined more than one order of magnitude | ~100 ng/mL | –
